Patent US20240343803A1 (SHANDONG SIMCERE BIOPHARMACEUTICAL, published 2024)

T1: human PVRIG-mFc protein (Acro, PVG-H5253) (human, UniProt Q6DKI7 41-171, limits assumed)
T1 construct: extracellular domain; Bought protein; also called PVRIG-ECD-mFc; not shown: mouse Fc tag of the bought protein
T1 sequence (looked up): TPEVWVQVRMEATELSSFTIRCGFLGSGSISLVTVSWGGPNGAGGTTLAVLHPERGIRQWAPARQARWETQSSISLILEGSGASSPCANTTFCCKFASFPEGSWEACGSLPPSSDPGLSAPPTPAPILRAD


Target: T1, human PVRIG-mFc protein (Acro, …)
Test: FACS blocking of PVRIG-mFc binding to CHO-K1-CD112 cells; competitor CD112
In short: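 Zombie violet-stained CHO-K1-CD112 cells were added for 30 min at 4° C, then PE goat anti-mouse IgG Fc (1:250) was applied and mean fluorescence intensity read on a BD Canto II. Curves were fitted with four-parameter logistic models in GraphPad Prism 9. IC50 and curve AUC were reported as percentages of the reference antibody values.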

Binder	% AUC to COM701-hIgG4 [%]	% AUC to SO35-hIgG1 [%]	% AUC to parental Ab [%]	% IC50 to COM701-hIgG4 [%]	% IC50 to SO35-hIgG1 [%]	% IC50 to parental Ab [%]
PVRIG-A50-H1 (Fc fusion, VHH-human IgG1 Fc format is stated for the parental VHH antibodies; not restated for the humanized variants; also called A50.VH1; not shown: human IgG1 hinge-CH2-CH3 (Fc)) EVQLVESGGGLVQPGGSLRLSCAASGFTFSYYDMSWVRQAPGKGLEWVSTINSNGGRTSYVDSVKGRFTISRDNSKNTLYLQMNSLRAEDTAVYYCVEGDPHNFGLENLSLRDFGSWGQGTMVTVSS	115	67.8	94	101	78	86.1
PVRIG-A50-H2a (Fc fusion, VHH-human IgG1 Fc format is stated for the parental VHH antibodies; not restated for the humanized variants; also called A50.VH2a; not shown: human IgG1 hinge-CH2-CH3 (Fc)) EVQLVESGGGLVQPGGSLRLSCAASGFTFSYYDMSWVRQAPGKGLEWVSTINSNAGRTSYVDSVKGRFTISRDNTKNTLYLQMNSLRAEDTAVYYCVEGDPHNFGLESLSLRDFGSWGQGTMVTVSS	112	66	91.6	118	91.7	101
PVRIG-A50-H1c (Fc fusion, VHH-human IgG1 Fc format is stated for the parental VHH antibodies; not restated for the humanized variants; also called A50.VH1c; not shown: human IgG1 hinge-CH2-CH3 (Fc)) EVQLVESGGGLVQPGGSLRLSCAASGFTFSYYDMSWVRQAPGKGLEWVSTINSDGGRTSYVDSVKGRFTISRDNSKNTLYLQMNSLRAEDTAVYYCVEGDPHNFGLENLALRDFGSWGQGTMVTVSS	132	77.7	108	122	94.7	105
PVRIG-A50 (Fc fusion, Alpaca VHH expressed as VHH-hinge-CH2-CH3 of human IgG1 (heavy-chain antibody); also called PVRIG-50; not shown: human IgG1 hinge-CH2-CH3 (Fc)) EVQLVESGGGLVQPGGSLRLSCAASGFTFSYYDMSWVRQAPGKGLEWVSTINSNGGRTSYVDSVKGRFTISRDNTKNTLYLQMNSLKPEDTAVYYCVEGDPHNFGLENLSLRDFGSWGQGTQVTVSS	122	72.1	100	117	90.6	100
PVRIG-A50-H1e (Fc fusion, VHH-human IgG1 Fc format is stated for the parental VHH antibodies; not restated for the humanized variants; also called VH1e; not shown: human IgG1 hinge-CH2-CH3 (Fc)) EVQLVESGGGLVQPGGSLRLSCAASGFTFSYYDMSWVRQAPGKGLEWVSTINSNAGRTSYVDSVKGRFTISRDNSKNTLYLQMNSLRAEDTAVYYCVEGDPHNFGLESLSLRDFGSWGQGTMVTVSS	126	74.1	103	130	101	111
PVRIG-A50-H1a (Fc fusion, VHH-human IgG1 Fc format is stated for the parental VHH antibodies; not restated for the humanized variants; also called A50.VH1a; not shown: human IgG1 hinge-CH2-CH3 (Fc)) EVQLVESGGGLVQPGGSLRLSCAASGFTFSYYDMSWVRQAPGKGLEWVSTINSDGGRTSYVDSVKGRFTISRDNSKNTLYLQMNSLRAEDTAVYYCVEGDPHNFGLENLSLRDFGSWGQGTMVTVSS	125	73.5	102	120	93	103
PVRIG-A50-H1d (Fc fusion, VHH-human IgG1 Fc format is stated for the parental VHH antibodies; not restated for the humanized variants; also called A50.VH1d; not shown: human IgG1 hinge-CH2-CH3 (Fc)) EVQLVESGGGLVQPGGSLRLSCAASGFTFSYYDMSWVRQAPGKGLEWVSTINSNGGRTSYVDSVKGRFTISRDNSKNTLYLQMNSLRAEDTAVYYCVEGDPHNFGLESLSLRDFGSWGQGTMVTVSS	121	71.1	98.7	115	89.1	98.4
PVRIG-A118-H3 (Fc fusion, VHH-human IgG1 Fc format is stated for the parental VHH antibodies; not restated for the humanized variants; also called A118.VH3; not shown: human IgG1 hinge-CH2-CH3 (Fc)) EVQLVESGGGLVQPGGSLRLSCAASETYFDLYVMGWYRQAPGKDRELVATITYTGSIKYVDSVKGRFTISRGDAKNSLYLQMNSLRAEDTAVYYCNADPSGLGRKVYWGQGTMVTVSS	127	65.8	107	146	98.8	104
PVRIG-A105-H2 (Fc fusion, VHH-human IgG1 Fc format is stated for the parental VHH antibodies; not restated for the humanized variants; also called A105 VH2; not shown: human IgG1 hinge-CH2-CH3 (Fc)) EVQLVESGGGLVQPGGSLRLSCAASGRTFDRHTMTWFRQAPGKEREFVATASRIPGDTYYVDSVKGRFTISRDNAKNSLYLQMNSLRAEDTAVYYCAATSAYCSEVDCYEKGSWYDNWGQGTMVTVSS				109	92.3	104

Results, then the binder that gave them:

% AUC to COM701-hIgG4 [%]	% AUC to SO35-hIgG1 [%]	% AUC to parental Ab [%]	% IC50 to COM701-hIgG4 [%]	% IC50 to SO35-hIgG1 [%]	% IC50 to parental Ab [%]	Binder
119	61.7	100	141	95.3	100	PVRIG-A118 (Fc fusion, Alpaca VHH expressed as VHH-hinge-CH2-CH3 of human IgG1; not shown: human IgG1 hinge-CH2-CH3 (Fc)) QVQLVESGGGLVQAGGSLRLSCAASETYFDLYVMGWYRQAPGKDRELVATITYTGSIKIVDSVKDRFTISRGDAKNTVSLQMSSLKPEDTAVYFCNADPSGLGRKVYWGQGTQVTVSS
116	60.4	97.9	141	95.4	100	PVRIG-A118-H4 (Fc fusion, VHH-human IgG1 Fc format is stated for the parental VHH antibodies; not restated for the humanized variants; also called A118.VH4; not shown: human IgG1 hinge-CH2-CH3 (Fc)) EVQLVESGGGLVQPGGSLRLSCAASETYFDLYVMGWYRQAPGKDRELVATITYTGSIKYVDSVKGRFTISRGDAKNSLSLQMNSLRAEDTAVYYCNADPSGLGRKVYWGQGTMVTVSS
142	73.7	120	161	109	115	PVRIG-A118-H2 (Fc fusion, VHH-human IgG1 Fc format is stated for the parental VHH antibodies; not restated for the humanized variants; also called A118.VH2; not shown: human IgG1 hinge-CH2-CH3 (Fc)) EVQLVESGGGLVQPGGSLRLSCAASETYFDLYVMGWYRQAPGKDRELVATITYTGSIKYVDSVKGRFTISRDNAKNSLYLQMNSLRAEDTAVYYCNADPSGLGRKVYWGQGTMVTVSS
120	62.4	101	141	95.4	100	PVRIG-A118-H1 (Fc fusion, VHH-human IgG1 Fc format is stated for the parental VHH antibodies; not restated for the humanized variants; also called A118.VH1; not shown: human IgG1 hinge-CH2-CH3 (Fc)) EVQLVESGGGLVQPGGSLRLSCAASETYFDLYVMGWYRQAPGKDRELVATITYTGSIYYVDSVKGRFTISRDNAKNSLYLQMNSLRAEDTAVYYCNADPSGLGRKVYWGQGTMVTVSS
127	66.1	107	144	97.4	102	PVRIG-A118-H5 (Fc fusion, VHH-human IgG1 Fc format is stated for the parental VHH antibodies; not restated for the humanized variants; also called A118.VH5; not shown: human IgG1 hinge-CH2-CH3 (Fc)) EVQLVESGGGLVQPGGSLRLSCAASETYFDLYVMGWYRQAPGKDRELVATITYTGSIKYVDSVKGRFTISRGDAKNSVYLQMNSLRAEDTAVYYCNADPSGLGRKVYWGQGTMVTVSS
119	61.7	100	145	97.8	103	PVRIG-A118-H6 (Fc fusion, VHH-human IgG1 Fc format is stated for the parental VHH antibodies; not restated for the humanized variants; also called A118.VH6; not shown: human IgG1 hinge-CH2-CH3 (Fc)) EVQLVESGGGLVQPGGSLRLSCAASETYFDLYVMGWYRQAPGKDRELVATITYTGSIKIVDSVKGRFTISRGDAKNSLYLQMNSLRAEDTAVYYCNADPSGLGRKVYWGQGTMVTVSS
124	64.3	104	143	97.1	102	PVRIG-A118-H7 (Fc fusion, VHH-human IgG1 Fc format is stated for the parental VHH antibodies; not restated for the humanized variants; also called A118.VH7; not shown: human IgG1 hinge-CH2-CH3 (Fc)) EVQLVESGGGLVQPGGSLRLSCAASETYFDLYVMGWYRQAPGKDRELVATITYTGSIKYVDSVKGRFTISRGDAKNSLYLQMNSLRAEDTAVYFCNADPSGLGRKVYWGQGTMVTVSS
